Results: patent publication US20160297881A1 (ENGMAB, published 2016)
Several values for one entry are separate records, joined by “and”; a condition that tells them apart may be missing. Equal values may be shown once.

Experiments:
[1] = target: T1, human CD3ε (human, UniProt P07766 23-207); test: flow cytometry on Jurkat T cells expressing human CD3
T1 construct: whole, on cells; On Jurkat cells as part of the TCR/CD3 complex; also called CD3 epsilon
Description: a) Anti-ROR1/anti-CD3 T cell bispecific antibodies generated in Example 3 were also analyzed by flow cytometry for their binding properties to human ROR1 expressed on primary B-CLL cells or human CD3 expressed on human leukemic T cells Jurkat (ATCC TIB-152). Jurkat T cells were cultured in RPMI supplemented with 10% fetal calf serum. Briefly, cultured cells were harvested, counted and cell viability was evaluated using ViCell. Viable cells were then adjusted to 2×10⁶ cells per ml in FACS Stain Buffer (BD Biosciences) containing 0.1% BSA. 100 μl of this cell suspension were further aliquoted per well into a round-bottom 96-well plate. […] After incubation for 30 min at 4° C., cells were centrifuged (5 min, 350×g), washed twice with 150 μl/well BSA-containing FACS Stain Buffer (BD Biosciences), then cells were fixed using 100 ul BD Fixation buffer per well (#BD Biosciences, 554655) at 4° C. for 20 min, resuspended in 120 μl FACS buffer and analyzed using BD FACS CantoII. Binding of the anti-ROR1/anti-CD3 T cell bispecific antibodies to B-CLL cells and T cells were evaluated and the mean fluorescence intensity was determined gated on either ROR1-expressing B-CLL cells or CD3-expressing Jurkat T cells and plotted in histograms or dot plots. […]

[2] = target: T2, human ROR1 (human, UniProt Q01973 30-937); test: flow cytometry on ROR1-positive RPMI8226 cells
T2 construct: whole, on cells; Endogenous ROR1 on ROR1-positive cells; also called tyrosine-protein kinase transmembrane receptor ROR1; neurotrophic tyrosine kinase, receptor-related 1
T2 sequence (Q01973 30-937): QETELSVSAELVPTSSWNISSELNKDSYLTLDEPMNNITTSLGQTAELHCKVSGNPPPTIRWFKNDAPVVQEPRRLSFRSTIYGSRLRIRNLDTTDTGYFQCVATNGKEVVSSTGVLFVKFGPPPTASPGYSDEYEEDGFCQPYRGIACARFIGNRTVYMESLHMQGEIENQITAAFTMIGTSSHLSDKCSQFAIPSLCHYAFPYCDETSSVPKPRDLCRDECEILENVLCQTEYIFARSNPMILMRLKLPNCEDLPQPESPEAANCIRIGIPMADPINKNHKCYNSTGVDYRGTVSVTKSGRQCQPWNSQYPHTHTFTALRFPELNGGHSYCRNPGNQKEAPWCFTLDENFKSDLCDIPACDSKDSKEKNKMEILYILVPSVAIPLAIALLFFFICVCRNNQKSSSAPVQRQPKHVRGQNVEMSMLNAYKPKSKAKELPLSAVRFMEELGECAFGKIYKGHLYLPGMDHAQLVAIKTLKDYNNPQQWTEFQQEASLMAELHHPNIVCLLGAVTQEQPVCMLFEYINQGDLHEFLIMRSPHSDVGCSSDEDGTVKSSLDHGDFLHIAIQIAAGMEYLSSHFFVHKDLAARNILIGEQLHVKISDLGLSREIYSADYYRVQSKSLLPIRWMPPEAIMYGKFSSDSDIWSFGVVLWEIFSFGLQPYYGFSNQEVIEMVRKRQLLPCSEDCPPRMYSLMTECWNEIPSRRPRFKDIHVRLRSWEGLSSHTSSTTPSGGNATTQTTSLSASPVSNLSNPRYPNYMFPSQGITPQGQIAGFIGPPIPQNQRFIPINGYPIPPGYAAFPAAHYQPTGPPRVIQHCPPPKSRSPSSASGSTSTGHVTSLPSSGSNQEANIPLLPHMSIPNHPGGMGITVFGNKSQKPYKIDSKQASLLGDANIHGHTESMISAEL
Description: a) Anti-ROR1 antibodies coming either from the immunization approach and/or from the screening of the recombinant in vitro library described above are analyzed by flow cytometry for binding to human ROR1 on HEK293-ROR1 cells. Briefly, cultured cells are harvested, counted and cell viability is evaluated using the Trypan Blue exclusion method. Viable cells are then adjusted to 2×10⁶ cells per ml in BSA-containing FACS Stain Buffer (BD Biosciences). 90 μl of this cell suspension are further aliquoted per well into a round-bottom 96-well plate. 10 μl of the anti-ROR1 antibodies or corresponding IgG control are added to the cell-containing wells to obtain final concentrations of 0.1 pM to 200 nM. All constructs and control IgG are used at the same molarity. […] The samples are resuspended in 200 μl/well FACS Stain Buffer and acquired and analyzed using an LSR II flow cytometer with FACSDiva® software (BD Biosciences). The mean fluorescence intensity (MFI) is plotted as a function of anti-ROR1 antibody concentration to obtain the binding curve and to calculate the effective antibody concentration to reach 50% of maximal binding (EC₅₀). […]
c) ROR1 expression was then assessed on B lymphocyte myeloma RPMI8226 cell lines by flow cytometry, using the methods described above.

T1 sequence (P07766 23-207): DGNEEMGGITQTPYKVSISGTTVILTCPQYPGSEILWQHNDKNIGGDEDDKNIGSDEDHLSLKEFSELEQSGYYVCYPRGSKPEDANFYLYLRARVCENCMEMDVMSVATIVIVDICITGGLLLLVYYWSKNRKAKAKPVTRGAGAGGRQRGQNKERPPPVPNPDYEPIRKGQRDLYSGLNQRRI

B1: anti-ROR1 IgG1 antibody (antibody, V domains shown)
VH: QEQLVESGGRLVTPGGSLTLSCKASGFDFSAYYMSWVRQAPGKGLEWIATIYPSSGKTYYATWVNGRFTISSDNAQNTVDLQMNSLTAADRATYFCARDSYADDGALFNIWGPGTLVTISS
VL: ELVLTQSPSVSAALGSPAKITCTLSSAHKTDTIDWYQQLQGEAPRYLMQVQSDGSYTKRPGVPDRFSGSSSGADRYLIIPSVQADDEADYYCGADYIGGYVFGGGTQLTVLG
notes: Bivalent human IgG1 kappa; Alexa488-labelled in some assays; also called anti-ROR1 antibody; anti-ROR1 IgG antibody
With B1 the binding result [1] was “no binding (tested: 3 nM to 500 nM)” and the EC50 [2] was 0.087 nM and 0.013 µg/mL.
